Test results reported in paper PMC11441417 (Nanoscale Horizons, 2024).
Where two headings read alike, the source gives them in different places.

T1: reovirus T1L σ3_(3)μ1_(3) heterohexamer (mammalian orthoreovirus type 1 Lang …, UniProt P07939 1-365; P11077 1-708)
T1 sequence (looked up) 1: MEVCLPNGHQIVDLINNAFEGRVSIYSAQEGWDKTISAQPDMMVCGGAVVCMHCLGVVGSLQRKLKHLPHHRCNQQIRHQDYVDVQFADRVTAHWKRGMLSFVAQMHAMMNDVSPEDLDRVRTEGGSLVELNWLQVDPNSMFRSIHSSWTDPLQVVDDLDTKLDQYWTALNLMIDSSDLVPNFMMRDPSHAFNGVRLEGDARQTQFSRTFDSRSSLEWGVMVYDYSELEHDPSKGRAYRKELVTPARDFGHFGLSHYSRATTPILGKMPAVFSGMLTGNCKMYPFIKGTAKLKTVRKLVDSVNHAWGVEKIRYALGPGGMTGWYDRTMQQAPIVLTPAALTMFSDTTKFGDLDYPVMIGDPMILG
T1 sequence (looked up) 2: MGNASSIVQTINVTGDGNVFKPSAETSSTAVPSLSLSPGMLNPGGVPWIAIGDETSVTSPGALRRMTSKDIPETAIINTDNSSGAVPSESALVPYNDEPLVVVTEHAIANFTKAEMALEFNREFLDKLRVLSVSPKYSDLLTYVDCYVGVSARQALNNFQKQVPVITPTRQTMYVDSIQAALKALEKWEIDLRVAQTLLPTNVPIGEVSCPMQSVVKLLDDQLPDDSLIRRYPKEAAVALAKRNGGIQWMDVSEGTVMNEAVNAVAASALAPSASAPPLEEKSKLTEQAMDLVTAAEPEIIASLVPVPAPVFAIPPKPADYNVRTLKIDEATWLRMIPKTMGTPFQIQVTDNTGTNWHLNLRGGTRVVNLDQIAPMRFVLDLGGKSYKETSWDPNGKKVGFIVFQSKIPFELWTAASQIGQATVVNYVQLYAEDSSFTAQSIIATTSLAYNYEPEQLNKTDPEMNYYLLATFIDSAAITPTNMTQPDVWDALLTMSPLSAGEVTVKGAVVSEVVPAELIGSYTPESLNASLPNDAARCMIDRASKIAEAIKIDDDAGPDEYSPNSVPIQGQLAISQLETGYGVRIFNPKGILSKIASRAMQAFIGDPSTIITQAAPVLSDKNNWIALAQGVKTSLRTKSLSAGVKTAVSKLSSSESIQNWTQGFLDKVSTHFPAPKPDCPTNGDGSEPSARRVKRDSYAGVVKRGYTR


What was measured:
Assay in all cases: AFM single-molecule force spectroscopy
[1] = biological target: T1, reovirus T1L σ3_(3)μ1_(3) heterohexamer
[2] = biological target: T1, reovirus T1L σ3_(3)μ1_(3) heterohexamer; remark: listed apart in the source
[3] = biological target: reovirus type 1 Lang (T1L) virion (mammalian orthoreovirus type 1 Lang (T1L)) (UniProt P07939)

Binder	koff [1] [s⁻¹]	koff [2] [s⁻¹]	kon [2] [M⁻¹ s⁻¹]	Kd [3] [nM]	koff [3] [s⁻¹]	kon [3] [M⁻¹ s⁻¹]	Kd [2] [nM]
His-tagged human Nogo-66 receptor 1 (amino acids 1-310) (receptor, UniProt Q9BZR6 27-310, looked up) CPGACVCYNEPKVTTSCPQQGLQAVPVGIPAASQRIFLHGNRISHVPAASFRACRNLTILWLHSNVLARIDAAAFTGLALLEQLDLSDNAQLRSVDPATFHGLGRLHTLHLDRCGLQELGPGLFRGLAALQYLYLQDNALQALPDDTFRDLGNLTHLFLHGNRISSVPERAFRGLHSLDRLLLHQNRVAHVHPHAFRDLGRLMTLYLFANNLSALPTEALAPLRALQYLRLNDNPWVCDCRARPLWAWLQKFRGSSSEVPCSLPQRLAGRDLKRLAANDLQGCA	3.51 ± 2.02	0.32 ± 0.21	2.17e+06 ± 200000	–	–	–	–
Fc-tagged mouse NgR1 (Fc fusion) CPGACVCYNEPKVTTSCPQQGLQAVPTGIPASSQRIFLHGNRISHVPAASFQSCRNLTILWLHSNALARIDAAAFTGLTLLEQLDLSDNAQLHVVDPTTFHGLGHLHTLHLDRCGLRELGPGLFRGLAALQYLYLQDNNLQALPDNTFRDLGNLTHLFLHGNRIPSVPEHAFRGLHSLDRLLLHQNHVARVHPHAFRDLGRLMTLYLFANNLSMLPAEVLMPLRSLQYLRLNDNPWVCDCRARPLWAWLQKFRGSSSEVPCNLPQRLADRDLKRLAASDLEGCAVASGPFRPIQTSQLTDEELLSLPKCCQPDAADKASVLEPGRPASAGNALKGRVPPGDTPPGNGSGPRHINDSPFGTLPSSAEPPLTALRPGGSEPPGLPTTGPRRRPGCSRKNRTRSHCRLGQAGSGASGTGDAEGS	–	–	–	93.5	0.65	6.94e+06	–
His-tagged mouse Nogo-66 receptor 1 (amino acids 1-447) (receptor, UniProt Q99PI8 27-447, looked up) CPGACVCYNEPKVTTSCPQQGLQAVPTGIPASSQRIFLHGNRISHVPAASFQSCRNLTILWLHSNALARIDAAAFTGLTLLEQLDLSDNAQLHVVDPTTFHGLGHLHTLHLDRCGLRELGPGLFRGLAALQYLYLQDNNLQALPDNTFRDLGNLTHLFLHGNRIPSVPEHAFRGLHSLDRLLLHQNHVARVHPHAFRDLGRLMTLYLFANNLSMLPAEVLMPLRSLQYLRLNDNPWVCDCRARPLWAWLQKFRGSSSEVPCNLPQRLADRDLKRLAASDLEGCAVASGPFRPIQTSQLTDEELLSLPKCCQPDAADKASVLEPGRPASAGNALKGRVPPGDTPPGNGSGPRHINDSPFGTLPSSAEPPLTALRPGGSEPPGLPTTGPRRRPGCSRKNRTRSHCRLGQAGSGASGTGDAEGS	–	0.23 ± 0.12	2.99e+06 ± 460000	–	–	–	76.8 ± 51.8
